Assay: yeast display, Sf9 membrane polyspecificity reagent, FACS + sequencing; frameworks hold sequencing errors
In short: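 Galactose induction of a Saccharomyces cerevisiae BJ5465 synthetic nanobody display library ran 36–48 hours. The cells were then stained for 1 hour at 4 °C with 10% biotinylated, detergent-solubilized Sf9 membrane reagent, pulled down on streptavidin microbeads and FACS-sorted into low and high (top ~1%) gates on expression and reagent-binding fluorescence. Labels for polyreactivity follow the gate of origin.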

Sequence: QVQLVESGGGLVQAGGSLRLISAASGSTFPPYSMGWYSQAPGKEWEVVADITRRGASTYYADSVKVRFTISRDNAKNTVYLQMNSLKPEDTAVYYCAARYYDQYYSGFDYWGQGTQVTVSS
- polyreactivity (PSR sort gate): high polyreactivity

Sequence: QVQLVDSGGGLVQAGGSLRLSCAASGNTIGRNAMGWYRQAPGKEWELVAAISFSGSRTYYADSVKGRFTISRDNAKNSVYLQMNILKPEDTAVYNFIAPEGRKPYDSWVQGTQVTVSS
- polyreactivity (PSR sort gate): low polyreactivity

Sequence: QEQLQESGVGLVQAGGSLRLICEASGSISQAWYMGWYRQAPGKERELVAAINVGAITYYADSVKGRFSISRDNAKNTVYLPMNSLTPDDTAVYYCAVDQYSEAYYDYWGQGTQATVSS
- polyreactivity (PSR sort gate): high polyreactivity

Sequence: QVQLVESGGGLVQAGGSLRLSCAASGSILCLNAMGWYRQAPGKERELVADITRGGSTYYADSVKGRFTISRDNAKNTVYLQMNSLKPEDTAVNYCAADAYTGQIPYYYFEHYYWGQGTQVTVSS
- polyreactivity (PSR sort gate): high polyreactivity

Sequence: QVQLVESGGGLVQAGGSLRLSCAASGSIYSYTMGWYRQAPGKEKELVAAITYSGDSTYYADSVKGRFTISRDNAKNTVYLQMNSLKPDDTAVYYCAKSGTLSEYDYWGQGTQVTVSS
- polyreactivity (PSR sort gate): low polyreactivity

Sequence: QVQLVESGGGLVQAGGSLRLCCAASGLTFYPNAMGWYRQAPGKEREFVASISISGRTYYADSVKGRFTISRDNAKNTVYLQMNSLKPEDTAVYYCAARYVRSGLYRKYDYWGQGTQVTVSS
- polyreactivity (PSR sort gate): high polyreactivity

Sequence: QVQLVESGGGLVQAGGSLRLSCAASGRIFTVYAMGWYRQAPGKERELVAAISGRGGRTYYADSVKGRFTISRDNAKNTVYLQMNSLKPEDTAGYYCNADTLTLSRPDGDIHTVWMDYWGQGTQVTVSS
- polyreactivity (PSR sort gate): low polyreactivity

Sequence: QVQLVESGGGLDQAGGSLRLSCAASGSTVVRYAMGWYRQAPGKEREFVATISRRGGSTYYADSVKGRFTISRDNAKNTVYLQMNSLKPEDTAVYYCAKQGEAALPYIYDHWGQGTQVTVSS
- polyreactivity (PSR sort gate): low polyreactivity

Sequence: QVQLVESGGGLVQAGGRLRLSGAASGLIFTTYAMGWSRQAPGKVRELVAAISSSGDSTYYADSVKGRFTISRDNAKNTVYLQMNSLKPEDTAVYYRAARYYYRGYEFGYWGQGTQVTVSS
- polyreactivity (PSR sort gate): high polyreactivity

Sequence: QVQLVESGGGLVQAGGSLSLSCAASGGTFSPYAMGWYRQAPGKERELVAITSSDSTNYADSVKGRFTISRDNAKNTVYLQMNSLKPEDTAVYYCNAGYPIPEDYLAYGNFDYWGQGTQVTVSS
- polyreactivity (PSR sort gate): low polyreactivity

Sequence: QLQLVESGGGLVQAGGSLRLSCAASGFTFRWYVMGWYRQAPCKQRELVASIRSGGSTYYADSVKGRFTISRDNAKNTVYLQMNSLKPEDTAVYYCAARFGRDRYYYWGQGTQVTVSS
- polyreactivity (PSR sort gate): high polyreactivity

Sequence: QVQLVESGGGLVQAGGSLRLSCAASGSTFPKYAMGWYRQAPGKERELVAAITFTGSSTYYADSVKGRFTISRDNAKNTVYLQMNSLKPEDTAVYYCNAVYYTGYYWGQGTQVTVSS
- polyreactivity (PSR sort gate): low polyreactivity

Sequence: QVQLVESGGGLVQAGGSLRLSCAASGSIFAFNAMGWYRQAPGKERELVAAITRSGGRTFYADSVKGRFTISRDNAKNTVYLQMNSLKPEDTAVYYCAASEWRFSSYGGVKYYVEYDYWGQGTQVTVSS
- polyreactivity (PSR sort gate): high polyreactivity

Sequence: QVHLVDTGGGLVKAGGSLRLSSAASGSTFEYYSMGWYRQEPGKERQLVPSISSGGSTNYADSVKGRFTISRDNAKNTVYLQMNSLKPEDTAVYYCAAEFAVSFYWSWLGQDYNFWGLGTQVTVSS
- polyreactivity (PSR sort gate): high polyreactivity

Sequence: QVQLVESGGGIVQAGGSLRLSCAASGFTFDYNTMGWYRQAPGKERELVAAISWSGGSTYYADSVKGRFTISRDNAKNTVYLQMNSLKPEDTAVYYCAAAWSYRYELYYCGQGTQVTVSS
- polyreactivity (PSR sort gate): low polyreactivity

Sequence: QVQIVESRVGLVQAGGSLRLSCAAYGSIFYYNAMGWYRQAPGKERELVAAITSSGGSTYADSVKGRFTISRDNAKNTVYLQMNSLKQEDTAVYYCATVAHGLWSGSGYIYAYDYWGQGTQVSVSS
- polyreactivity (PSR sort gate): low polyreactivity

Sequence: QVQLVESGGGLVQAGGSLRLSCAASGSTFFTNVMGWYRQAPGKERELVADISSGGDTNYADSVKGRFTISRDNAKNTVYLQMNSLKPEDTAVYYCAVDPNVDYELHGFFFSFDYWGQGTQVTVSS
- polyreactivity (PSR sort gate): low polyreactivity

Sequence: QVQLVESGGGLDQAGGCLRLSSAASGIIFYYNRMGCDRQAPGKERDLVADISGDGSTNYADSVKGRFTISRDNAKNTLYLQINSLKPDDTAFYYCNSDDIFRPRDDLYDYWGQGTQVTVSS
- polyreactivity (PSR sort gate): low polyreactivity

Sequence: QVQLVESGGALVQAGGSLRLSCAASGRIFSRYVIRWYRQAPGKERELVAAISWNGGSTYYADSVKGRFRISRDNAKNTVYLQMNSLKPEDTAVYYCAARVRVTGTYYTKFDYWGQGTQVTVSS
- polyreactivity (PSR sort gate): high polyreactivity

Sequence: QLQLVESGGGLVQAGGSLRLSCAASGGTFYSYEMGWYRQATVKEREFVAAITYGGGSTYYADSVKGRFTMSRDNAKNTDYLQMNSLKPEDTAVYYCYARRYGSRLGERYYYWGQGTQVTVSS
- polyreactivity (PSR sort gate): high polyreactivity

Sequence: QVQLVESGGGLVQAGGSLRVSCAASGFIFYGYTMGWYREAPGKERELVARISRRGGSTYYADSVKGRFTISRDNAKNTVYLQMNSLKPEDTAVYYCATRALGHFDWGQGTQVTVSS
- polyreactivity (PSR sort gate): low polyreactivity

Sequence: QVQLVESGGGLVQAGGSLRLSCAASGSIFGGYTMGWYRQAPGKERELVAAISRRGGNTYYADSVKGRFTISRDNAKNTVYLQMNSMKPEDSAVYYCAVRWPSARIPVKLDYWGQGTQVNVSS
- polyreactivity (PSR sort gate): high polyreactivity

Sequence: QVQLVESGGGFVQAGGSLRLSCAASGRIFVVNAMLWYRPAPAKESEFVAAISRSGGSTYYADSVKGRFTISRDKATNTVYLQMNSLKREDTAVYYCAADIVGFRTSGTYEYWGHGTQVTVSS
- polyreactivity (PSR sort gate): low polyreactivity

Sequence: QVQLVESGGGLVQAGGSLRLSCAASGSTFYAKAMGWYRQAPGKERELVATINRRGNTYYADSVKGRFTISRDNAKNTVYLQMNSLKPEDTAVYYCAADYRRYGSYDYWGQGTQVTVSS
- polyreactivity (PSR sort gate): low polyreactivity

Sequence: QVQLVESGGGLVQAGGSLRLSSAASGSTSCPYAMGWYRQAPGKERELVATISWIGDRTYYADSVKGRFTISRDNAKNTFYLQMNSLKPEDTAVYYCNADYRGYANLEGDYWGQGTQVTVSS
- polyreactivity (PSR sort gate): low polyreactivity

Sequence: QVQLVESGGGLVQAGGSLRLSCAASGSIFGRNAMGWYRQAPGKEREFVAAISQRGGRTYYADSVKGRFTISRDNAKNTVYLQMNSLKPEDTAVYYCAATYTRVPNRFYYWGQGTQVTVSS
- polyreactivity (PSR sort gate): high polyreactivity

Sequence: QVQLVESGGGLVQAGGSLRLICAASGITFYAYPMGWYRQAPGKERELVAAITSSGSSTYYADSVKGRFTISLDNAKNTVYFQMNSLKPEDTAVFYCAATRGTKFYWGQGTQVTVSS
- polyreactivity (PSR sort gate): high polyreactivity

Sequence: QVQLVESGGGLVQAGGSLRLSCAASGRIFSIYAMGWYRQAPGKERELVAAITRGGRTNYADSVKGRFTISRDNAKNTVYLQMNSLKPEDTAVYYCAARRIDGVVKPYDYWGQGTQVTVSS
- polyreactivity (PSR sort gate): low polyreactivity

Sequence: QVQLVESGGGLVKAGGSLRLSFAASGSIFEPYVMGWYRQAPGKQRELVAAISESGDTTYYADSVKGRFTISRDNAKTTVYLKMNSLKPEDTAVYDCNAEDPSIYGWWRVGEYDYWGQGTQVTVSS
- polyreactivity (PSR sort gate): low polyreactivity

Sequence: QVQLVESGGGLVQAGGSLLLSCAASGSTFGSYDMGWYRQAPGKERELVATISTSGSGTYYADSVKGRFTISRDNSKNTVYLQMNSLKPEDTAFYDCAKDPADGRRFRYGYWGQGTQVTVSS
- polyreactivity (PSR sort gate): low polyreactivity

Sequence: QVQLVESGGGLVQAGGSLRLSCADSGFISGGNDMGWNRQAPGKEREFVAAIDNTGSTYYADSVKGRFTISRDNAKNTVYLQMNSLKPEDSAVYYCNAEVSEDYVDNDFWGQGTQVTVSS
- polyreactivity (PSR sort gate): low polyreactivity

Sequence: RVQLVESGGGLVQAGGSLRLSCAASGLIFYYNAMVWYRQAPGKERELVAAISTGGSTNYADSVKGRFTISRYNAKNTVYLQMNSLKPEDTAVYYCAAGTRKPYGYKMYYWGQGTQVTVSS
- polyreactivity (PSR sort gate): high polyreactivity

Sequence: QVQLVESGGGLVQAGGSLRLSCAASGSIFTHNAMGCYRQAPGKERELVAAMSSGGSTNDADSVKGRFTISRDNAKNTVYLKMNSLTPEDTAVYYCAKSIDGWYWRRRRYDYWGQGTQVTVSS
- polyreactivity (PSR sort gate): low polyreactivity

Sequence: QVQLVESGGGLVQAGSSLRLSCAASGSIFPVYAMGWYRQSPGKERELVAAISCIGGGTYYADSVKGRFTISRDNAKNTVYLQMNSLKPEDTAVYYCAAVPYTSEYDYWGQGTQVTVSS
- polyreactivity (PSR sort gate): high polyreactivity

Sequence: QVQLVESGGGLVQAGGSLRLSCAASGLIFLYNPMGWYRQAPGKEREFVAAITSVDSTKYADSVKGRFTISRENAKNTVYLQLNSLKPEDTAVYYCAAVPRYQYGYWGQGTQVTVSS
- polyreactivity (PSR sort gate): low polyreactivity

Sequence: QVQLVESGGGLVHAGGSLRLSCAASGSIFYEYAMGWYRQAPGKERELVASINRGGGSTYYADSVKGRFTISRDNAKNTVYLQMNSLKPEDTAVYYCAAQWKYRQSYLDYYWGQGTQVNVSS
- polyreactivity (PSR sort gate): low polyreactivity

Sequence: QVQLVETGGGLVQAGGTLRLSCAPSGLIVDLYAMGCYRQAPGKERELVATISGSGGSTYYADSEKGRFTISRDNAKNTVYLQMNSLKPEDTAFYYCAAVSVSSWYDDCGQGTQVTVSS
- polyreactivity (PSR sort gate): low polyreactivity

Sequence: QVQLVESGGGLVQAGGSLRLSCAASGSIFYGYAMGWYRQAPGKERELVAAISFSGGSTHYADSVKGRFTISRDNAKNTVYLQMNSLKPEDTAVYYCATDSGTPGDDEYWGQGTQVTVSS
- polyreactivity (PSR sort gate): low polyreactivity

Sequence: QVQLVESGGGLVQAGGSLRLSCAASGSTFVPNAMGWYRQAPGTERELVAAITVDGDDTYYADSVKGRFTISRDNAKNTVYFQMNSLKPEVTAVYYCKADPDVPFFSWLTGRGTYDYWGQGTQVTVSS
- polyreactivity (PSR sort gate): low polyreactivity

Sequence: QVQLVESGGGLVQAGGSLRLSCAASGTIPGYAMGWYRQAPGKETELVAAITWSDDSTFYADSVKGRFTISRDNAKNTVYLQMNSLKPEDTAVYYCAAEYVVSTQEFDYWGQGTQVTVSS
- polyreactivity (PSR sort gate): low polyreactivity

Sequence: QVQLEESGGGLVQAGGSLRLSCAASGSTFWLNAMGWYRQAPGKESELVASITWSGDSTYYADSVKGRFTISRDNAKNTVYLQMNSLKPEDTAVYYCNTDSILGQIWGATDDYWGQGTQVTVSS
- polyreactivity (PSR sort gate): low polyreactivity

Sequence: QVQLVESGGGLVQAGGSLRLSCAASGRTFGRYAMGWYRQAPGKERELVAAINSGSASTYYADSVKGRFTISRDNAKNTVYLEMNSLKPEDPAVYYCAKRVQQSTWYGYGIGYEYWGQGTQVTVSS
- polyreactivity (PSR sort gate): high polyreactivity

Sequence: QVQLVESGGGLVQAGGSLRLSCAASGSTFTLYAMGWYRQAPGKERELVATITGSGGSTNYADSVKGRFTISRDNAKNTVDLQMNSLKPEDTAVYYCAKRVQQSTWYGYGIGYEYWGQGTQVTVSS
- polyreactivity (PSR sort gate): high polyreactivity

Source: the nanobody polyreactivity screen of Harvey et al. (2022)
